For experiment [1], the target named is T1, recombinant EGFRvIII extracellular region protein (UniProt P00533 25-645).
T1 construct: extracellular domain; also called rEGFRvIIIex; rEGFRvIII
Put plainly: non-competitive ELISA on coated rEGFRvIIIex; derived from the affinity constant.
Procedure: (§1) After the coated buffer was removed, the plates were washed with PBS one time followed by adding with 350 μl of PBS containing 5% of skimmed milk powder and incubating overnight. Then the plates were washed with PBS twice. […] The plates were incubated with antibodies at 37° C. for 1 hour and washed thrice with PBS. Then the plates were added with 100 μL of HRP-labeled goat anti-mouse secondary antibodies, incubated at 37° C. for 1 hour and washed 5 times with PBS followed by incubation with ABTS substrate for 15 min. The absorbance value was determined at 405 nm with a microplate reader. The binding curve was drawn according to the absorbance values to obtain the antibody concentration at half-maximal OD value (OD50%).
(§2) The concentrations are substituted into the formula K=(n−1)/2 (nAb′−Ab) to calculate the affinity constant, wherein, Ab′ and Ab represent the OD50% antibody concentration (mol/L) when the concentrations of antigen is Ag′ and Ag, n=Ag/Ag′. Six K values were obtained by paired comparison and averaged to obtain the final value.

Experiment [2] addresses T1, recombinant EGFRvIII extracellular …. Put plainly: non-competitive ELISA, rEGFRvIIIex coated at 2.5 mg/L; antibody concentration at half-maximal OD. (An ELISA detects its analyte on a solid surface through an enzyme-linked reagent.)
Procedure: as §1
Experiment [3] shares this target. In words: non-competitive ELISA, rEGFRvIIIex coated at 5.0 mg/L; antibody concentration at half-maximal OD.
Procedure: as §1
The target is the same in experiment [4]. In words: non-competitive ELISA, rEGFRvIIIex coated at 1.25 mg/L; antibody concentration at half-maximal OD.
Procedure: as §1
The target is the same in experiment [5]. Put plainly: non-competitive ELISA, rEGFRvIIIex coated at 0.625 mg/L; antibody concentration at half-maximal OD.
Procedure: as §1
For experiment [6] the target is unchanged. Put plainly: non-competitive ELISA on coated rEGFRvIIIex; average of six K values from paired coating concentrations.
Procedure: as §1, §2

Several values for one entry are separate records, joined by “and”; a condition that tells them apart may be missing. Equal values may be shown once.

B1: monoclonal antibody 12H23 (antibody, V domains shown)
VH: DVQLQESGPGLVKPSQSLSLTCTVTAYSVTSDYAWNWIRQFPGNKLEWMGYISYSGTTRYNPSLKSRISITRDTSKNQFFLQLNSMTAEDTATYYCSRQGRGFPYWGQGTLVTVSA
VL: DILMTQSPSSMSVSLGDTVSITCHASQDINSNIGWLQQKPGKSFKGLIYHGTNLEDGVPSRFSGSGSGADYSLTISSLESEDFADYYCVQYAQFPWTFGGGTKLEIKR
notes: also called murine monoclonal antibody 12H23; clone 12H23
What is called Kd is the equilibrium constant for the complex coming apart. As a reminder, the EC50 is the midpoint of the concentration-response curve. Consider B1, for which the Kd in experiment [1] came to 0.026 nM. The EC50 in experiment [2] is 0.0025 µg/mL and 0.017 nM; in experiment [3], 0.003 µg/mL and 0.02 nM; in experiment [4], 0.0023 µg/mL and 0.015 nM; in experiment [5], 2 ng/mL. In addition, the Ka in experiment [6] amounted to 3.8e+10 M⁻¹.

For the origin of these results see patent publication US20130039920A1 (SHANGHAI CANCER INSTITUTE, published 2013).
